Source: the DeepSol protein solubility set

Assay: soluble on expression in E. coli; label from the status in PepcDB or PDB records

Which “soluble on expression in E. coli” value does the source give for “MYSFELDKLKIELKTWEHDFIDKNKREPTRDDIKSLRTVRQMYKQYSTLKKKQSLQRQKVDTQESVELPAHKKDHDEVVEIGPTPQVYGKAISIFDMNLSPIKPIYMTFTNNIDVNNDNSKTISNESSPRKTILLKSSPADRTLVAEPISSVKRQLNFQMLNASSTRTPTSSPCKNRNGKLVEIKKCSPTINPPLESGKPSGYYGPNSPLKLDEENIHLNISLNSSTKRRLQIAYPSLQKTPSKDQADISTSFSPSPLIRRPLTKSLIELAREHTEIVKEFGVLQEEDIEEEEEGEEGENGYDEKNHEDDFGLEDELIRPKVVKDIFQEDDDNDDSQAREDTFIRKRPKRRKVIRRLRDNDPETETAGFERDVHKELVKLKRRKVAEFLGSTSQISDTEFEHDPEASSGVVSSEQKPTAKRKGRKKYNLVSNNFRRLKLPKKNRFSNGRWGRR” here?
The value was “not soluble”.

With “MYTLIIPAAGQGKRMGAGKNKLFLLINEVPIIVHTLRAFEKDKACKNIIMAINEEERPYFEELMQKYPVEKPVQFIQGGAERQDSVYNAIQHTTDVEYVLVHDGARPFVTNKVIQDVLTAAEKYGASICAVPVKDTVKKVEQGVVVETVERSQLKAVQTPQGFSVSLLLEAHRSAKQSCFLGTDDASLVERIGKQVGVVEGSYYNIKVTTPEDLLIAESFLHVQKK” as the sequence, how does the “soluble on expression in E. coli” value read?
The value was “not soluble”.

With “MYTLSAGIWEKFFKKKDYYVVIVGLDNAGKTTFLEQTKSHFVKDYGVLNPSKITATVGLNTGNVELNNTCLHFWDLGGQESLRELWATYYDDANAMIFVVDATRSDLFPIVASQFKEVMANEIVQNIPVLVAVNKSEMEGAAAAAEVRMLLEDDNHRSDLAVLPVSALEGTNIERCVHWIVRSLASQPLYL” as the sequence, how does the “soluble on expression in E. coli” value read?
The value was “not soluble”.

Which “soluble on expression in E. coli” value does the source give for “MYVQLSQRLKDVATYVPKGAKLLDVGSDHAYLPIYLLEKGLITSAIAGEVVKGPYESALANVSASGFNDKIDVRLANGLAAFEPYDAVTTITICGMGGRLIADILDAGKDKLKDVDRLILQPNNREDDLRIWLMENGFTIVAEAIMTEN” here?
The value was “not soluble”.

For “NCSKIHLSTKLLAVDFPAHFVKSISCQICEHILADPVETSCKHLFCRICILRCLKVMGSYCPSCRYPCFPTDLESPVKSFLNILNSLMVKCPAQDCNEEVSLEKYNHHVSSHKESK”, which “soluble on expression in E. coli” value is on record?
The value was “soluble”.

For “NDRHIRHDITRPLPFADNSVDAFQAEDVLEHIAYDRIVPVLNEIHRVLKPGAVFRLSVPDYRCDILDARTEKDATGAPVFDPGGGGTRENPGHAWFPRYETVKTLVEKSNFGTAGEISFLHYYDEHNLPAMREIDYAKGFIQRPPDHDPRVQTPYRPMSLVVDLTKRDVRIFSSFNNSASHA”, which “soluble on expression in E. coli” value is on record?
Its value is “not soluble”.

Which “soluble on expression in E. coli” value does the source give for “NECVSKGFGCLPQSDCPQEARLSYGGCSTVCCDLSKLTGCKGKGGECNPLDRQCKELQAESASCGKGQKCCVWLH” here?
The value was “soluble”.

Which “soluble on expression in E. coli” value does the source give for “NEKETISYIINTSKNIVIFALSPDKTKASYRVAEFLQRKNYKIFPIYPKEEFILNEKVYRNLDQIEEKIDTLILFRKGEVALEILPKLVEKNIKNLWLQLDISNETAKEECKKLDINFIQNRCIMLEYPHFK” here?
Its value is “not soluble”.

Which “soluble on expression in E. coli” value does the source give for “NEKFRPEMLQGKKVIVTGASKGIGREIAYHLAKMGAHVVVTARSKEALQKVVARCLELGAASAHYIAGSMEDMTFAEEFVAEAGNLMGGLDMLILNHVLYNRLTFFHGEIDNVRKSMEVNFHSFVVLSVAAMPMLMQSQGSIAVVSSVAGKITYPLIAPYSASKFALDGFFSTLRSEFLVNKVNVSITLCILGLIDTETAIKATSGIYLGPASPKEECALEIIKGTALRQDEMYYVGSRWVPYLLGNPGRKIMEFLSAAEYNWDNVLSNEKLYGRWA” here?
Its value is “soluble”.

With “NKDMSFVIRGNFTYSKNKIDNWEQIEQKYAYQNFSGWPYGIQRGYIALGLFRDEADINNSPIQTFGNYEAGDIKYKDVNGDGRIDIDDQVPLSYDNYPRLMYGFGGEFRYKNLTFNILFKGIGKKDFFYTSEDSGFGYYPFLYGETGNVLSIVANSSNRWIPASYSGDPSTENPNARFPRLSYGKNSNNTQKSTFWKANGQYLRLQEISVGYNLKLKAFSKIGVSSIDLQLVGQDLYVWDKIGGLWDPEQTTKNGRAYPIPATYSLQMYINF” as the sequence, how does the “soluble on expression in E. coli” value read?
Its value is “not soluble”.

With “NKDWTLAIRGNITYNKDKWIEGELPEQRYDWMNQYGQNILGKKGYIAEGLFTQAEIDDMARWESLSQANKATTPKPFASQFGTVKAGDIKYKDLNNDGQIDAYDKTYICRGDVPTMVYGFGFTLGWKNLSLGMMFQGTHDAERIMSGSSIQPFNGGGGSGNLYSNIDDRWTEDNPNQNAFYPRLSYGAETSSNINNFQPSTWWVRDFSFLRLKTMQISYNLPKDWVNKVRLKNAAVYVMGTNLFTLSKFKLWDPELNTDNGASYPNTTSYSVGVNFTF” as the sequence, how does the “soluble on expression in E. coli” value read?
Its value is “not soluble”.

For “NKNFSWNTDWTYSLNREKIKALNSGVTRDEGNLWFVGSPTQVFYDYKKIGIWQLGEEVQAKAFGGFKPGDIKVADMSPKGSEGEGVFSTDDRVIFSRVPKYTFGITNNIIYKNFDLMFFIYGRIGQYVKDAYTQLYKPSALENSAPVNYWTPENPSNEYPRPNSGYSTNSYLLQSSLAFRKASFVKIRDITLGYTLPKEWTSKMMVQKLRIYCSLNNFITFTDFPNYDPESNGSMDFPLAKQVLFGINLSL”, which “soluble on expression in E. coli” value is on record?
Its value is “not soluble”.

Which “soluble on expression in E. coli” value does the source give for “NKNWFVSFKGTFTYAHNEITQYDESPKYPWQSKIGVSANKNAIYIADGLFIDAADIANHQQQLGAAVIPGDIKYINISRDWYGYDDNLTDTDDWVWAKHPGVPEIVYGFGPSIKWKNLDFSFFFQGIARTSFMVKDFHPFGDSMLRNVLSWVADERWSPDNQNTNATYPRLSRKTNNNNNKLSSYWERNGAFLKLKNAEIGYTYKNMRLYISGSNLMTFAPFDLWDPEQGGGSGLSYPTQRVFNIGFQMTINNK” here?
The value was “not soluble”.

For “NLPNIVILATGGTIAGSAAANTQTTGYKAGALGVETLIQAVPELKTLANIKGEQVASIGSENMTSDVLLTLSKRVNELLARSDVDGVVITHGTDTLDESPYFLNLTVKSDKPVVFVAAMRPATAISADGPMNLYGAVKVAADKNSRGRGVLVVLNDRIGSARFISKTNASTLDTFKAPEEGYLGVIIGDKIYYQTRLDKVHTTRSVFDVTNVDKLPAVDIIYGYQDDPEYMYDASIKHGVKGIVYAGMGAGSVSKRGDAGIRKAESKGIVVVRSSRTGSGIVPPDAGQPGLVADSLSPAKSRILLMLALTKTTNPAVIQDYFHAY”, which “soluble on expression in E. coli” value is on record?
Its value is “soluble”.

For “NLYFQGHMVLKLLLELGAERYAEQFAAKCHELGMVMKESAGPGRVPVPVTLQPSMISRGEFGTLCCMQPLWNEAVDNTARNFTFLRDALQETAASDVNFTGKLLNMLQEVYLSGGPFQQLMLGIFRTDYMREGVYDKMLSTTASRWKNVEINTISCSFAGLSPLITEFHQHIAAYLQVLQKARGKEDDDGVENMSWIWGKGNCRLERSVSGDVVPKAIADAVRAWVEQQKFASLRASWEQFQQNEVGSGEIHQLGVLDTAPVVLVVVQENERNTADQYALLMRVLEEHRIRFIFRTLQELHLSLKLHSISPEQPPLAVVDGHYPIAVAYFRSTYVPEDFPTDATWAARLSLERSSAIKCPSIPYHLLTFKKLQQLLCDVDRVLVPVAFCGDSDKAGLLQRHFVPQYSLNPKEVGEEAVEKVIHDVLQRPDQFVLKPQLEGGGNLLSGETMVKALKATKEGDPVTYSKVRCEYVVMSRIQFHVSTGSLLARGDVVQLERNMCSEVGIFGVILSAAKGSSVGTNGSSVLFNTFAGYTVRSKPADADDGGVMAGVAALDSLAVVP”, which “soluble on expression in E. coli” value is on record?
The value was “soluble”.

With “NRGIEFSGGRNYVVKFDQPVSSEAVRSALSSPLQEKVLVTSIGTEGTEVRISTNYKIQEESEETEAEITDKLYQSLKGFYTQQPTADQFLDNIISSQKVSPSMSSDITRGA” as the sequence, how does the “soluble on expression in E. coli” value read?
Its value is “not soluble”.

Which “soluble on expression in E. coli” value does the source give for “NRGVTGGFGITQDITERKKVEEALRISNIYNRSLIEASPDPLVTIGQDGKITDVNNSTETVTGYSRDELIGTDFSDYFTEPERAKKGYQHVFLKGFVKDYPLEIQHKDGRVTQVLYNASVYRDESGEVIGVFAAARD” here?
The value was “not soluble”.

Which “soluble on expression in E. coli” value does the source give for “NRLKDSKAKSRVVILLTDGSNNMGDITPRMAADIARTFGIRVYTVGVGTRGEAPFPIQTEFGVRIQNVPVDIDEPTLDGIAEVSGGKYFRAVDNETLNEIYKEIDKLEKTRLMTKSFKAYEEK” here?
The value was “not soluble”.

For “NSAHQFHNQQEGEHYILAGYPWFKCRARDMFISLPGLTLALEEVDQFEDVMKTAEKAIRSFINDEPAGYKIYEMEHPDVLLWAVWALQQYAKETSREQCRQKYGELLKDIIEFIRQRKHENLFLHENGLLYANGTDKAITWMNSTVNGHPVIPRTGYIVEFNALWYNALRFVADLVREDGNVLLADALDAQAEVTGKSFIEVFRNEYGYLLDYVDGNMMDWSVRPNMIFAVAFDYSPLDRAQKKQVLDIATKELLTPKGLRTLSPKSGGYNPNYVGPQIQRDYAYHQGTAWPWLMGFYMEAYLRIYKMSGLSFIERQLIGLEDELTIHCISSLPELFDGNPPFKGRGAVSFAMNVAEVLRILKLLSKYY”, which “soluble on expression in E. coli” value is on record?
The value was “not soluble”.

For “NSLDNQVRLLLEDSVPKYNASYFLESKTSEINRRVEALQAVDNKVQLTEQAMQVNEQLASISTVLKSNKMSSEFYQLLESEAGLASLLEKYVDMISTRIDQTRRVDQLMEQINWLHQDIRSELKPVRQEVHWQIERVNDSKEIQNLLVQLSTLQRVIDIESAVYDMAIDVAGASMPEQVDNGMKVIHFRLMDLQESSTTLMNQPTSIAYKQLLQELVVVLSPEGAFDKQLMSLVTLNGDIQKIQEQIALSMEAIHQQIGELVSTADQTFKQVKSETAERVSYGN”, which “soluble on expression in E. coli” value is on record?
Its value is “not soluble”.

For “NSSDYRALFLNDVPMMDARAPVEFSKGAFPGVINLPLMNDIERQKVGTCYKQHGQDAAIQLGHQLVCGQVKDERVEAWVEFARANPNGYLYCFRGGLRSQTVQRWLKDAGVDYPRILGGYKAMRTFLLDTLHEAVTE”, which “soluble on expression in E. coli” value is on record?
The value was “not soluble”.

For “NTYAPIETLKRLYSEAFRLPDVVGISIGTRIDSVNHEILDFLGEYAREKEVWIEYGIQSIHDRTLEGINRGHDSSEMEYWIKETQNRGIKVCVHLIYGLPGESEEMMLETLDKMIEWQAESIKIHPLYVMAHTALATLYKKGEYTPITLERYAWLIGESMKRIPK”, which “soluble on expression in E. coli” value is on record?
The value was “not soluble”.

With “NWVTPDGAPGPTGKGGFAAASGRYHLYVSYACPWAHRTLIFREIKGLSAHIPVSAVHPDMLDQGWTFAPEPQGRTGDRLYGLNYAHQVYTRADPTYSGRVTVPILWDSERQTVVSNESSEIIRMFNSAFDGLTGNRDDFWPEALREAIEPVNARIYDTVNN” as the sequence, how does the “soluble on expression in E. coli” value read?
The value was “not soluble”.

For “NYGVDFSDIAGQSTSIRALEIAASGGHNIILYGPPGSGKTMLAKRLPTILPPLSYKEALEVSKIYSITGQFDNKNLVFKRPFRAPHHTSSKISLVGGGSKLFPGEISLSHNGVLFLDELLEFKRSSIEVLRQPLEDKVIRFSKSSGNVTYPANFMFISAMNLCPCGNYG”, which “soluble on expression in E. coli” value is on record?
Its value is “not soluble”.

For “PAPTPSSSPVPTLSPEQQEMLQAFSTQSGMNLEWSQKCLQDNNWDYTRSAQAFTHLKAKGEIPEVAFMK”, which “soluble on expression in E. coli” value is on record?
The value was “soluble”.

For “PDAPRNLQLSLPREAEGVIVGHWAPPIHTHGLIREYIVEYSRSGSKMWASQRAASNFTEIKNLLVNTLYTVRVAAVTSRGIGNWSDSKSITTIKG”, which “soluble on expression in E. coli” value is on record?
The value was “soluble”.
